Our source for the cGITR-His/BKG, mGITR-His/BKG and hGITR-His/BKG values is patent US20220106398A1 (IGM BIOSCIENCES, published 2022).

Assay in all cases: ELISA, scFv periplasmic extract on coated His6-GITR
(In general: An ELISA detects its analyte on a solid surface through an enzyme-linked reagent.)

Experiment [1] concerns the target T1, cynomolgus monkey His6-GITR (cynomolgus monkey).
T1 construct: His6-tagged recombinant protein; also called cGITR-His; cyno GITR-His
T1 chain: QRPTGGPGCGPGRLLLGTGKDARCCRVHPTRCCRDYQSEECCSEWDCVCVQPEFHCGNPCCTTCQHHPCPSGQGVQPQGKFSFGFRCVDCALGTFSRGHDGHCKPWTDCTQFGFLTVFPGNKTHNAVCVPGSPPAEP
The protocol: (§1) The SuperHuman-2.0 scFv Antibody Library (available from Distributed Bio, South San Francisco, Calif.) was used to perform selection with human, cynomolgus or mouse GITR proteins. Selected phage clones from overnight growth were inoculated into wells in 96 well deep well plates containing 1 mL of medium. scFv expression was induced by addition of IPTG (Teknova) to a final concentration of 1 mM. Plates were grown overnight after induction. To prepare periplasmic extracts (PPE), the plates containing the phage clones were centrifuged at 2500 rpm for 10 min, the supernatant discarded and then pellets treated with 75 μL of cold periplasmic extract buffer with appropriate concentration of protease inhibitors (Complete Mini, EDTA-free -Roche Applied Biosciences—Cat No 1836170). After shaking at room temperature for 10 min, 225 μL of cold ddH2O with added protease inhibitor (1 tablet/50 mL) was added per well and mixed by pipetting up and down. PPE extraction was completed by incubation at room temperature for an additional 1 hr. The plates were then centrifuged at 4000 rpm for 20 minutes and 200 μL of PPE supernatant was collected from each well and transferred to a new plate which was then blocked with equal volume of 4% milk (2% final) to prepare blocked PPE extracts. In the meantime, Maxisorp plates (Nunc 442404) coated with relevant antigen (human, mouse or cynomolgus monkey His6-GITR) at 50 μl/well of 1 μg/mL antigen or 2% BSA in PBS as control were prepared for ELISA analyses. Next, 50 μL of each blocked PPE extract was transferred to the pre-blocked ELISA plates coated with the relevant antigens. After incubation and washing 3× with PBS, 50 μL of anti-V5 tag antibody (tag included in the phage display constructs, Invitrogen Cat No R960-25) at 1:5000 dilution in 2% milk was added and the plates were incubated for 1 hr. […] After further washing 3× with PBST, 50 μl/well of TMB substrate was added and the plates were developed until positive controls were visible. The reaction was stopped with 50 μl/well of 2N H2SO4. Plates were read at 450 nm to determine ELISA signal from bound PPE derived scFv.

The next experiment has as its target T2, mouse His6-GITR (mouse, UniProt O35714 20-153).
T2 construct: His6-tagged recombinant protein; also called mGITR-His; mouse GITR-His
T2 sequence: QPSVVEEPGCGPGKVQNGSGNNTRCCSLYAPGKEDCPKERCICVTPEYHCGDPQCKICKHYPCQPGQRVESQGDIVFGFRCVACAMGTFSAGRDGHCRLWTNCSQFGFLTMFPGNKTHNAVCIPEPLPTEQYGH
The protocol: as §1

The target in a further experiment is T3, human His6-GITR (human, UniProt Q9Y5U5 26-162).
T3 construct: His6-tagged recombinant protein; also called hGITR-His; human GITR-His
T3 sequence: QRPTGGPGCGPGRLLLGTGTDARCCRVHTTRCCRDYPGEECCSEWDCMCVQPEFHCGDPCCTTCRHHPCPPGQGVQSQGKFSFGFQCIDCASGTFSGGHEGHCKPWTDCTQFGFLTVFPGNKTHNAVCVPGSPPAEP
The protocol:
as §1

B1: GITR-Mab-46 scFv (scFv, V domains shown)
VH: QVQLVQSGAEVKKPGASVKVSCKASGGSFSNYAINWVRQAPGQGLEWMGWMNPYSGNTGYAQKFQGRVTMTRDTSTSTVYMELSSLRSEDTAVYYCAREITANYYYGMDVWGQGTKVTVSS
VL: DIQMTQSPSSLSASVGDRVTITCQASQDISNYLNWYQQKPGKAPKLLIYEASVLESGVPSRFSGSGSGTDFTLTISSLQPEDFATYYCQQSYTTQYTFGQGTKVEIK
notes: scFv in periplasmic extract, V5 tag
In turn, B1 registered a cGITR-His/BKG in experiment [1] of 5.3 fold over background. In the experiment with mouse His6-GITR, this molecule yielded a mGITR-His/BKG of 6.5 fold over background. The same molecule yielded a hGITR-His/BKG in the experiment with human His6-GITR of 4 fold over background.

B2: GITR-Mab-43 scFv (scFv, V domains shown)
VH: QVQLVQSGAEVKKPGASVKVSCKASGYTFTSHDIDWVRQAPGQGLEWMGWMNPNNGNTVYAQRFQGRVTMTRDTSTSTVYMELSSLRSEDTAVYYCARWKVYSGSYYGGAGYFDLWGRGTLVTVSS
VL: DIQMTQSPSSLSASVGDRVTITCRASQSISSYLNWYQQKPGKAPKLLIYRASHLEGGVPSRFSGSGSGTDFTLTISSLQPEDFATYYCQQADSLPLTFGQGTKVEIK
notes: as for B1
For the molecule B2, the cGITR-His/BKG in experiment [1] is 12 fold over background. The mGITR-His/BKG with mouse His6-GITR was found to be 14.6 fold over background. In the experiment with human His6-GITR, the hGITR-His/BKG is 11.7 fold over background.

B3: GITR-Mab-42 scFv (scFv, V domains shown)
VH: QVQLVQSGAEVKKPGASVKVSCKASGYIFTNYWIQWVRQAPGQGLEWMGWINPHSGATKYAERFQGRVTMTRDTSTSTVYMELSSLRSEDTAVYYCARGLGSAFDIWGQGTMVTVSS
VL: not shown
notes: as for B1
The molecule B3 yielded a cGITR-His/BKG in experiment [1] of 4.2 fold over background. The molecule further showed a mGITR-His/BKG with mouse His6-GITR of 1 fold over background. In the experiment with human His6-GITR, this molecule yielded a hGITR-His/BKG of 5.5 fold over background.

B4: GITR-Mab-47 scFv (scFv, V domains shown)
VH: QVQLVQSGAEVKKPGSSVKVSCKASGGTFSTYAINWVRQAPGQGLEWMGIINPTDGDTSYAQKFQGRVTITADESTSTAYMELSSLRSEDTAVYYCARAAYYYYGMDVWGQGTTVTVSS
VL: not shown
notes: as for B1
In experiment [1], B4 had a cGITR-His/BKG of 21 fold over background. The same molecule registered a mGITR-His/BKG with mouse His6-GITR of 24.9 fold over background. In addition, the hGITR-His/BKG with human His6-GITR came to 13 fold over background.

B5: GITR-Mab-39 scFv (scFv, V domains shown)
VH: EVQLLESGGGLVKPGGSLRLSCAASGFTFSSYWMSWVRQAPGKGLEWVSSISWSSTYIYYADSVKGRFTISRDDSKNTLYLQMNSLKTEDTAVYYCARDGQLGHWHFDLWGRGTLVTVSS
VL: DIQMTQSPSSLSASVGDRVTITCRASQSISDWLAWYQQKPGKAPKLLIYEASKLATGVPSRFSGSGSGTDFTLTISSLQPEDFATYYCQQSYTTPLTFGGGTKVEIK
notes: as for B1
The molecule B5 had a cGITR-His/BKG in experiment [1] of 4 fold over background. Further, the mGITR-His/BKG with mouse His6-GITR came to 4.4 fold over background. In the experiment with human His6-GITR, this molecule gave a hGITR-His/BKG of 4.2 fold over background.

B6: GITR-Mab-40 scFv (scFv, V domains shown)
VH: EVQLLESGGGLVQPGGSLRLSCAASGFTFRNHWMSWVRQAPGKGLEWVSGISWNSGSIDYADSVKGRFTISRDNSKNTLYLQMNSLRAEDTAVYYCAREEYATFDYWGQGTLVTVSS
VL: not shown
notes: as for B1
Consider B6, for which, in experiment [1], the cGITR-His/BKG was determined as 15.5 fold over background. Also, in the experiment with mouse His6-GITR, the mGITR-His/BKG was determined as 23.2 fold over background. This molecule displayed a hGITR-His/BKG in the experiment with human His6-GITR of 13.9 fold over background.

B7: GITR-Mab-41 scFv (scFv, V domains shown)
VH: QVQLVQSGAEVKKPGASVKVSCKASGGSFSDYAVSWVRQAPGQGLEWMGWMNPNSGNTGYAQKFQGRVTMTRDTSTSTVYMELSSLRSEDTAVYYCARELVRDGYNFALDYWGQGTLVTVSS
VL: DIQMTQSPSSLSASVGDRVTITCRASQDIRNDLAWYQQKPGKAPKLLIYAASSLQSGVPSRFSGSGSGTDFTLTISSLQPEDFATYYCQQSFSTFYTFGQGTKLEIK
notes: as for B1
B7 had a cGITR-His/BKG in experiment [1] of 10.3 fold over background. The molecule also registered a mGITR-His/BKG with mouse His6-GITR of 10.4 fold over background. In addition, the hGITR-His/BKG in the experiment with human His6-GITR amounted to 9.9 fold over background.

B8: GITR-Mab-44 scFv (scFv, V domains shown)
VH: QVQLVQSGAEVKKPGASVKVSCKASGYTFTSHDIDWVRQAPGQGLEWMGWINPSGDSTSYAQKFQGRVTMTRDTSTSTVYMELSSLRSEDTAVYYCARYYGGNSYAFDIWGQGTMVTVSS
VL: DIQMTQSPSSLSASVGDRVTITCRASESISPWVAWYQQKPGKAPKLLIYAASTLQSGVPSRFSGSGSGTDFTLTISSLQPEDFATYYCQQGTSTPYTFGQGTKLEIK
notes: as for B1
For the molecule B8, the cGITR-His/BKG in experiment [1] came out at 12.3 fold over background. In the experiment with mouse His6-GITR, this molecule displayed a mGITR-His/BKG of 15.6 fold over background. This molecule registered a hGITR-His/BKG with human His6-GITR of 12.4 fold over background.
